Source: article PMC11346345 (Cell reports, 2024)

Molecular target: recombinant GP38 of CCHFV Afg09-2990 (Crimean-Congo hemorrhagic fever virus, …, UniProt E5FEZ4, strain)
Experiment: SPR

B1: ADI-58048 IgG (antibody, V domains shown)
VH: QLQLQESGPGLVKPSETLSLTCTVSGGSITTSHYYWGWIRQPPGKGLEWVGSMYYSGGIYYNPSLKGRVTISVDTSKNQFSLKLSSVTAADTAVYYCALADAPDDAFDIWGQGTMVTVSS
VL: DIQMTQSPSSLSAFVGDRVTITCRASQSISSYLNWYQQKPGKAPKLLIYAASTLQSGVPSRFSGSGSGTDFTLTISSLQSEDFATYYCQESYSIPFTFGPGTKVDIK
**Q.** With B1 as the binder, how does the “fold reduction in binding” value read?
**A.** ~27 fold
